In article PMC3828344:

System: vesicular stomatitis virus particle (Vesicular stomatitis virus)
Test: electrochemical aptasensor (SWV)

## GCTAGCGAATTCCGTACGAAGGGCGAATTCCACATTGGGCTGCAGCCCGGGGGATCC [thiolated AG3 (aptasensor)]
  binding signal (% of current decrease): 9.1
